Experimental data as given in paper PMC11259706 (The Journal of Biological Chemistry, 2024).
Primed or numbered codes have the meaning given here. Where no end group is shown, it is not given here. 5FAM′ = 5-carboxyfluorescein; Ahx = NCCCCCC(=O)O

Columns and labels:
[1] = biological target: protein phosphatase 5 (PP5), human, full-length (human) (UniProt P53041); assay: fluorescence polarisation; competition (Fig. 1B, C, E, F): unlabelled peptide varied, PP5 at a concentration equivalent to the Kd, tracer 20 nM (tracer not named for these panels), 5 min
full-length PP5 [2] = biological target: T1, full-length PP5 (Homo sapiens, UniProt P53041); assay: FP competition studies; format: binding; conditions: for affinity relative to natural MEEVD in competition FP: acetylated pentapeptides competing with Hsp90 tracer, n = 4
T1 construct: His-tag with TEV cleavage site (N, cleaved yes); made in house; host or cells: Escherichia coli BL21 (DE3)
T1 sequence (P53041 1-499): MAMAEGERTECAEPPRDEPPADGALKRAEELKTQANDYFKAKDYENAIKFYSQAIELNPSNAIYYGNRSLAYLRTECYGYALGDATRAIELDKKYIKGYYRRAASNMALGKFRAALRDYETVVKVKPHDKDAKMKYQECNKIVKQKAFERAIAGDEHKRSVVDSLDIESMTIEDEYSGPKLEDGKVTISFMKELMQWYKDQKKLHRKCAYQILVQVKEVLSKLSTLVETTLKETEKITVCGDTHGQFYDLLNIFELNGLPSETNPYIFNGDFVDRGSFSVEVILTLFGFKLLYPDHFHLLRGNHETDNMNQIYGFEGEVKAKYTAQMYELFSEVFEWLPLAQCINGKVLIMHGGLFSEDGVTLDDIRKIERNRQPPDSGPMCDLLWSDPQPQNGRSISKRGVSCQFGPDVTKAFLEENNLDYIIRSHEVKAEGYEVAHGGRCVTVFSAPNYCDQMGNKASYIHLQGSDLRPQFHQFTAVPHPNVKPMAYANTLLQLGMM
Experimental: (§1) These probes were stored as 10 mM DMSO stocks at −30 °C. […] Each well received PP5 (5 μl) from a 3-fold dilution series prepared using the assay buffer. […] The plate was shielded from light and allowed to incubate at room temperature for 15 min, a duration determined to reach equilibrium during assay development. All experiments were conducted in 384-well, black, low-volume, round-bottom plates (Corning; catalog number = 4511). […] Data analysis was carried out using GraphPad Prism 6.
Samples were incubated for 5 min prior to measurements. Results were analyzed as above.

full-length PP5 [3] = biological target: T1, full-length PP5; assay: Fluorescence polarization (FP) saturation binding of fluorescent tracers; conditions: for direct binding of tracer relative to natural sequence: FP direct binding, n = 4
Experimental: as §1

PP5 = biological target: T2, PP5 (Homo sapiens, UniProt P53041); assay: pNPP colorimetric phosphatase assay; format: biochemical; conditions: peptide 100 μM
T2 construct: His-tag with TEV cleavage site (N, cleaved yes); made in house; host or cells: Escherichia coli BL21 (DE3)
T2 sequence (P53041 1-499): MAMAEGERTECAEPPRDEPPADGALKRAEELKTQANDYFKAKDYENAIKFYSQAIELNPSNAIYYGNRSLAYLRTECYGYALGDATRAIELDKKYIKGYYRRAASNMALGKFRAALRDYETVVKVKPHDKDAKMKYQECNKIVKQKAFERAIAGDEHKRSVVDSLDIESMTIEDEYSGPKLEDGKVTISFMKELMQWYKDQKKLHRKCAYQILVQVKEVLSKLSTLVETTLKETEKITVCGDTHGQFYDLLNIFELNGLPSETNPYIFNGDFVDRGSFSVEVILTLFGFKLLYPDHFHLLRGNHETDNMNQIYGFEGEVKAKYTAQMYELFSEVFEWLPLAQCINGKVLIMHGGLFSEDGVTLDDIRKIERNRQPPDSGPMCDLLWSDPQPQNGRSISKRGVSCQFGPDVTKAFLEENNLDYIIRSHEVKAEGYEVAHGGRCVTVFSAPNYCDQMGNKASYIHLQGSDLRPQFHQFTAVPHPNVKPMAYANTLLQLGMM
Experimental: To measure PP5’s enzyme activity, pNPP was used as substrate, as previously described ([24], [42]). Briefly, purified PP5 (1 μM) was incubated with peptides (100 μM) in 40 mM Hepes, 20 mM KCl, 5 mM MnCl2, and 1 mM DTT, pH 7.5 at 20 °C in 96-well microtiter plates (total volume 50 μl). Reactions were then initiated by addition of the pNPP substrate at concentrations from 0 to 60 mM. After 30 min, reactions were quenched with 2N NaOH (100 μl), and the release of p-nitrophenol was recorded at 410 nm (ε = 15,100 M − 1 cm−1) on a Molecular Devices M5 plate reader. Enzyme parameters (e.g., Km, kcat) were calculated using the Michaelis–Menten equation in Graphpad Prism 6.

HEK293T cells = assay: Global translation assay; format: cell-based; conditions: 50 μg/ml, compared to DMSO control, three independent replicates
Experimental: HEK293T cells (ATCC) were cultured in Dulbecco’s Modified Eagle Medium supplemented with 10% fetal bovine serum and 1% penicillin/streptomycin. These cells were maintained at 37 °C/5% CO2 in a humidified incubator. Cells were negative for mycoplasma contamination (MicroSeq; ThermoFisher Scientific) at the start of the experiments, and they were used without further authentication.
The global translation assay (Abcam; ab273286) was used to measure protein synthesis according to the manufacturer’s specifications. Briefly, in this method, O-propargyl-puromycin is used to trap actively translating ribosomes, followed by addition of a fluorescent Click probe, such that suppression of translational is measured as a decrease in fluorescence. HEK293T cells or HEK293T cells overexpressing FLAG-PP5 were cultured as above. Cells were incubated with the supplied protein label reagent and incubated for 24 h, after which the cells were washed with culture media and fixed/permeabilized for 15 min in the dark. Click reactions were carried out for 30 min, and the plate fluorescence measured at Ex/Em 494/521 nm in a SpectraMax M5 multimode plate reader.

[4] = biological target: T3, protein phosphatase 5 (PP5), human, full-length (human, UniProt P53041 1-499); assay: fluorescence polarisation; saturation binding: tracer 20 nM, 3-fold dilution series of PP5; 50 mM Hepes, 75 mM NaCl, 0.001% Triton X-100, pH 7.4; room temperature, 15 min; conditions: both partners purified
T3 construct: protein phosphatase 5 (PP5), human, full-length, expressed from a pMCSG7 vector; source: E. coli BL21 (DE3), purified (Ni-NTA, TEV cleavage, size-exclusion chromatography); not shown: His-tag, N-terminal, cleaved
T3 sequence (looked up): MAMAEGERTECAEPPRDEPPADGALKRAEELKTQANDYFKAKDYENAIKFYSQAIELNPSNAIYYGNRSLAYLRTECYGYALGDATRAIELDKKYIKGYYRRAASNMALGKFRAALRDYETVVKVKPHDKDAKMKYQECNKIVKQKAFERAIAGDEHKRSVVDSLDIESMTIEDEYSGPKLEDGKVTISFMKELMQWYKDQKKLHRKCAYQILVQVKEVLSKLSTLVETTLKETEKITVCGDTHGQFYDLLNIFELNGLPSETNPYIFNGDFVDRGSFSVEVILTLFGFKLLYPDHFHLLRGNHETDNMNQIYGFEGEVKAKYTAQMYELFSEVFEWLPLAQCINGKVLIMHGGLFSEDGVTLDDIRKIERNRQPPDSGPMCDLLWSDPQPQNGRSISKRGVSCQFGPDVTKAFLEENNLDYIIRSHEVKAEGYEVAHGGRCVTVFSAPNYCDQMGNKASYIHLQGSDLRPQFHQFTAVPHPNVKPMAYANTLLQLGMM

[5] = biological target: T3, protein phosphatase 5 (PP5), human, …; assay: cell-based or functional assay
[6] = biological target: T4, protein phosphatase 5 (PP5), human, full-length (human, UniProt P53041 1-499); assay: FP
T4 chain: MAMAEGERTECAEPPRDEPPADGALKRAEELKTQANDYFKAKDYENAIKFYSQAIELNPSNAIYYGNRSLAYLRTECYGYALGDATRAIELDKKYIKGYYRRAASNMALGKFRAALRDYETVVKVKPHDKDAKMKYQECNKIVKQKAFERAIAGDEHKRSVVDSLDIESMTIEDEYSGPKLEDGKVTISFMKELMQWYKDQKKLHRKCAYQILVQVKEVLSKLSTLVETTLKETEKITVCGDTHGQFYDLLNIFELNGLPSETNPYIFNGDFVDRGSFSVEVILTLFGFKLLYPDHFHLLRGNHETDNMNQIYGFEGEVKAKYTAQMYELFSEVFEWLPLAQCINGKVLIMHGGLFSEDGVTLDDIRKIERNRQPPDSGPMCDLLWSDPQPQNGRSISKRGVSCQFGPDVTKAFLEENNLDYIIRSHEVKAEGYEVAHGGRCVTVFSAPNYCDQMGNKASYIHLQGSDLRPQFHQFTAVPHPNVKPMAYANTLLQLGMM

[7] = biological target: T3, protein phosphatase 5 (PP5), human, …; assay: fluorescence polarisation; competition with the Hsp90 tracer (Fig. 2C): PP5 at a concentration equivalent to the Kd, tracer 20 nM, 5 min; conditions: both partners purified

**Q.** “Hsp70 peptide with the P5 isoleucine replaced by alanine” was tested. Which Ki [1] did it give?
**A.** 13600 nM

**Q.** Which Ki (full-length PP5 [2]; read-out: Ki, FP competition (truncations and alanine scan)) does the source give for “Ac-GSGPTAEEVD [Hsp70 peptide, P5 isoleucine mutation]” here?
**A.** ~13600 nM

**Q.** How did the “direct binding of tracer relative to natural sequence” value (full-length PP5 [3]) turn out when 5FAM-AHX-WDDID was run?
**A.** bound tighter than the natural sequence

**Q.** How did the “affinity relative to natural MEEVD in competition FP” value (full-length PP5 [2]) turn out when “WDDLD [optimized acetylated pentapeptide]” was run?
**A.** tighter affinity than the natural MEEVD

**Q.** How did the “affinity relative to natural MEEVD in competition FP” value (full-length PP5 [2]) turn out when “WEEVD [optimized acetylated pentapeptide]” was run?
**A.** tighter affinity than the natural MEEVD

**Q.** With LSLLD [LSLLD] as the molecule, how does the Kd (full-length PP5 [3]; restates Fig. 5B, measured with tracer 5FAM-AHX-LSLLD, read-out: Kd of ELP1 C-terminal motif for PP5's TPR domain (restated)) read?
**A.** ~4000 nM

**Q.** And the “effect on Km of PP5” value (PP5; pNPP substrate)?
**A.** both the kcat and Km were improved

**Q.** How did the decrease in translation (HEK293T cells) turn out when C[C@@H]1C[C@@H]([C@H](O)CC2CC(=O)NC(=O)C2)C(=O)[C@@H](C)C1 [cycloheximide] was run?
**A.** 40%

**Q.** Which “effect on PP5 enzyme activity” value (PP5; DMSO 1%) does the source give for LSLLA here?
**A.** did not

**Q.** What about the “competition with ELP1 tracer for binding to PP5” value (full-length PP5 [2]; tracer 5FAM-AHX-LSLLD, unlabeled peptide, three independent experiments in technical triplicates) of the same molecule?
**A.** completely suppressed binding

**Q.** How did the “direct binding of tracer relative to natural sequence” value (full-length PP5 [3]) turn out when 5FAM-AHX-WDDPD was run?
**A.** bound tighter than the natural sequence

B1: ELP1 tracer 5FAM-AHX-LSLLD (peptide)
peptide: {5FAM′-Ahx}-LSLLD
notes: C-terminal five amino acids of elongator acetyltransferase complex subunit 1 (ELP1; IKBKAP); also called LSLLD tracer; source: synthetic peptide
**Q.** For B1, which Kd [4] is on record?
**A.** 4400 ± 800 nM

B2: fluorescent tracer 5FAM-AHX-WDDVD (peptide)
peptide: {5FAM′-Ahx}-WDDVD
notes: also called WDDVD tracer; source: synthetic peptide
**Q.** B2 was tested. Which Kd [4] did it give?
**A.** 17 ± 10 nM

B3: Hsp70 tracer 5FAM-AHX-IEEVD (peptide)
peptide: {5FAM′-Ahx}-IEEVD
notes: also called Hsp70 IEEVD tracer; source: synthetic peptide, custom synthesized by GenScript
**Q.** For B3, which Kd [4] is on record?
**A.** 941 ± 70 nM

B4: fluorescent tracer 5FAM-AHX-WEEVD (peptide)
peptide: {5FAM′-Ahx}-WEEVD
notes: also called WEEVD tracer; source: synthetic peptide
**Q.** With B4 as the molecule, how does the Kd [4] read?
**A.** 15 ± 10 nM

**Q.** For TMYFA (fluorescent label (tracer)) [fluorescent tracer of the AGO1 C-terminal five amino acids (negative control)], which Kd [4] is on record?
**A.** > 100000 nM

B5: fluorescent tracer of the DDCP C-terminal sequence WKPVD (peptide)
peptide: WKPVD
modifications: also: fluorescent label (tracer), position not given here
notes: the label DDCP could not be tied to an entry; Probably 5FAM-AHX-labelled like the ELP1 tracer; also called DDCP tracer; source: synthetic peptide
**Q.** For B5, which Kd [4] is on record?
**A.** > 100000 nM

**Q.** LSLLD [ELP1 C-terminal pentapeptide LSLLD (unlabelled)] was tested. Which “kcat/Km of PP5 phosphatase activity on pNPP with peptide (100 μM); 0.49 μM^−1sec^−1 without peptide” value [5] did it give?
**A.** 1.28 μM^−1sec^−1

**Q.** With DSDSD (fluorescent label (tracer)) [fluorescent tracer of the U520 C-terminal five amino acids] as the molecule, how does the Kd [4] read?
**A.** > 100000 nM

**Q.** With Ac-WDDVD [optimized acetylated pentapeptide WDDVD] as the molecule, how does the “kcat of PP5 phosphatase activity on pNPP with peptide (100 μM); 2.5-fold” value [5] read?
**A.** 0.24 s⁻¹

**Q.** And the Ki [6]?
**A.** 30 nM

B6: fluorescent tracer 5FAM-AHX-WDDID (peptide)
peptide: {5FAM′-Ahx}-WDDID
notes: also called WDDID tracer; source: synthetic peptide
**Q.** Does B6 bind [4]?
**A.** binds

B7: optimized acetylated pentapeptide WDDLD (peptide)
peptide: Ac-WDDLD
notes: optimized EEVD-like pentapeptide from the PSSCL screen; source: synthetic peptide
**Q.** Does B7 bind [7]?
**A.** binds

B8: optimized acetylated pentapeptide WDDID (peptide)
peptide: Ac-WDDID
notes: as for B7
**Q.** For B8, which Ki [6] is on record?
**A.** 60 nM

**Q.** Does B8 bind [7]?
**A.** binds

B9: optimized acetylated pentapeptide WDDPD (peptide)
peptide: Ac-WDDPD
notes: as for B7
**Q.** What does the source list for B9?
**A.** Ki [6]: 40 nM; binding result [7]: binds

B10: fluorescent tracer 5FAM-AHX-WDDPD (peptide)
peptide: {5FAM′-Ahx}-WDDPD
notes: also called WDDPD tracer; source: synthetic peptide
**Q.** Does B10 bind [4]?
**A.** binds
